# Tested on: Escherichia coli TOP10
# Assay: shrunken log2 fold change of peptide-encoding DNA abundance (4.5 h post-induction vs induction); higher = less antimicrobial activity (less host growth inhibition)
# Conditions: time post-induction: 4.5 h; library: site-saturation at positions 5, 18, 19, 20
# 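Also: peptides expressed intracellularly from a pBAD plasmid library in pooled LB shake-flask culture, induced with 0.3% L-arabinose, DNA abundance read by NGS, three biological replicates, DESeq2 with apeglm shrinkage.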
row,Sequence,shrunken log2 fold change
1,RRIRIRPPRLPRPRPRPKNCPRP,-0.164
2,RRIRFRPPRLPRPRPRPASPPRP,0.164
3,RRIRKRPPRLPRPRPRPRLGPRP,0.587
4,RRIRCRPPRLPRPRPRPMYVPRP,-0.766
5,RRIRTRPPRLPRPRPRPVPFPRP,0.0392
6,RRIRMRPPRLPRPRPRPVFVPRP,0.0672
7,RRIRNRPPRLPRPRPRPIVFPRP,-0.207
8,RRIRSRPPRLPRPRPRPKERPRP,0.265
9,RRIRARPPRLPRPRPRPGAWPRP,0.259
10,RRIRSRPPRLPRPRPRPDWTPRP,-0.179
11,RRIRTRPPRLPRPRPRPKGFPRP,0.0975
12,RRIRKRPPRLPRPRPRPTCCPRP,0.0692
13,RRIRFRPPRLPRPRPRPMLDPRP,-0.365
14,RRIRRRPPRLPRPRPRPRHMPRP,-0.0552
15,RRIRMRPPRLPRPRPRPSYAPRP,-0.0187
16,RRIRNRPPRLPRPRPRPFPMPRP,-0.0139
17,RRIRGRPPRLPRPRPRPPRDPRP,1.12
18,RRIRPRPPRLPRPRPRPDNRPRP,0.0191
19,RRIRGRPPRLPRPRPRPEKHPRP,0.617
20,RRIRNRPPRLPRPRPRPHNFPRP,-0.436
21,RRIRTRPPRLPRPRPRPHSNPRP,-0.489
22,RRIRYRPPRLPRPRPRPMWDPRP,0.0162
23,RRIRGRPPRLPRPRPRPKMNPRP,0.407
24,RRIRERPPRLPRPRPRPYPAPRP,-0.544
25,RRIRTRPPRLPRPRPRPYGRPRP,-0.27

row,Sequence,shrunken log2 fold change
1,RRIRHRPPRLPRPRPRPWDAPRP,-0.101
2,RRIRTRPPRLPRPRPRPCDLPRP,0.0183
3,RRIRMRPPRLPRPRPRPNEYPRP,-0.0432
4,RRIRGRPPRLPRPRPRPFWSPRP,0.679
5,RRIRTRPPRLPRPRPRPIVQPRP,0.0444
6,RRIRVRPPRLPRPRPRPPLPPRP,0.325
7,RRIRGRPPRLPRPRPRPWALPRP,-0.115
8,RRIRQRPPRLPRPRPRPAHFPRP,0.464
9,RRIRHRPPRLPRPRPRPCKVPRP,-0.0825
10,RRIRERPPRLPRPRPRPGCWPRP,0.166
11,RRIRVRPPRLPRPRPRPIGPPRP,-0.0936
12,RRIRHRPPRLPRPRPRPHCQPRP,-0.0776
13,RRIRPRPPRLPRPRPRPWICPRP,-0.182
14,RRIRMRPPRLPRPRPRPVGYPRP,0.515
15,RRIRHRPPRLPRPRPRPDLQPRP,-0.15
16,RRIRNRPPRLPRPRPRPHGWPRP,0.127
17,RRIRQRPPRLPRPRPRPFMNPRP,-0.148
18,RRIRTRPPRLPRPRPRPFLRPRP,-0.0935
19,RRIRCRPPRLPRPRPRPNMGPRP,-0.14
20,RRIRMRPPRLPRPRPRPKMEPRP,1.45
21,RRIRERPPRLPRPRPRPLWFPRP,0.174
22,RRIRKRPPRLPRPRPRPDERPRP,-0.00101
23,RRIRNRPPRLPRPRPRPFLRPRP,-0.0221
24,RRIRLRPPRLPRPRPRPHRCPRP,-0.0644
25,RRIRVRPPRLPRPRPRPSTWPRP,-0.184

row,Sequence,shrunken log2 fold change
1,RRIRQRPPRLPRPRPRPAMFPRP,0.0399
2,RRIRMRPPRLPRPRPRPVGKPRP,0.216
3,RRIRIRPPRLPRPRPRPKLHPRP,-0.0109
4,RRIRLRPPRLPRPRPRPFTHPRP,-0.342
5,RRIRRRPPRLPRPRPRPIVWPRP,0.0811
6,RRIRFRPPRLPRPRPRPDIDPRP,0.0707
7,RRIRCRPPRLPRPRPRPLDRPRP,-0.478
8,RRIRDRPPRLPRPRPRPPIQPRP,0.242
9,RRIRCRPPRLPRPRPRPGCPPRP,0.239
10,RRIRLRPPRLPRPRPRPLKPPRP,0.171
11,RRIRFRPPRLPRPRPRPGKPPRP,-0.0809
12,RRIRCRPPRLPRPRPRPPENPRP,0.2
13,RRIRDRPPRLPRPRPRPVGMPRP,0.37
14,RRIRNRPPRLPRPRPRPQMLPRP,-0.409
15,RRIRDRPPRLPRPRPRPHCKPRP,0.0223
16,RRIRKRPPRLPRPRPRPGFWPRP,0.537
17,RRIRERPPRLPRPRPRPMRSPRP,0.119
18,RRIRGRPPRLPRPRPRPKHMPRP,0.0797
19,RRIRQRPPRLPRPRPRPNMCPRP,-0.195
20,RRIRKRPPRLPRPRPRPQFAPRP,-0.0223
21,RRIRWRPPRLPRPRPRPMAMPRP,0.00646
22,RRIRVRPPRLPRPRPRPGQPPRP,0.0218
23,RRIRFRPPRLPRPRPRPNTQPRP,-0.309
24,RRIRPRPPRLPRPRPRPKPTPRP,0.434
25,RRIRYRPPRLPRPRPRPDYTPRP,-0.174

row,Sequence,shrunken log2 fold change
1,RRIRKRPPRLPRPRPRPLIKPRP,-0.338
2,RRIRGRPPRLPRPRPRPEAPPRP,1.73
3,RRIRMRPPRLPRPRPRPLNEPRP,0.216
4,RRIRSRPPRLPRPRPRPPNGPRP,0.36
5,RRIRYRPPRLPRPRPRPLQEPRP,-0.218
6,RRIRNRPPRLPRPRPRPILPPRP,-0.297
7,RRIRGRPPRLPRPRPRPHSCPRP,0.153
8,RRIRLRPPRLPRPRPRPTLAPRP,0.423
9,RRIRFRPPRLPRPRPRPSMYPRP,-0.432
10,RRIRVRPPRLPRPRPRPAMEPRP,-0.139
11,RRIRWRPPRLPRPRPRPGAWPRP,0.373
12,RRIRMRPPRLPRPRPRPYSWPRP,-0.0788
13,RRIRFRPPRLPRPRPRPMGNPRP,-0.707
14,RRIRRRPPRLPRPRPRPVKSPRP,0.625
15,RRIRCRPPRLPRPRPRPLGEPRP,0.277
16,RRIRERPPRLPRPRPRPYKDPRP,-0.157
17,RRIRCRPPRLPRPRPRPYHSPRP,-0.73
18,RRIRERPPRLPRPRPRPWKSPRP,-0.0163
19,RRIRGRPPRLPRPRPRPGFPPRP,0.691
20,RRIRSRPPRLPRPRPRPPVQPRP,0.319
21,RRIRCRPPRLPRPRPRPKNHPRP,-0.461
22,RRIRQRPPRLPRPRPRPCFHPRP,-0.425
23,RRIRNRPPRLPRPRPRPVGTPRP,-0.073
24,RRIRIRPPRLPRPRPRPYCPPRP,-0.175
25,RRIRQRPPRLPRPRPRPKYPPRP,0.0386

row,Sequence,shrunken log2 fold change
1,RRIRKRPPRLPRPRPRPNHDPRP,-0.0524
2,RRIRVRPPRLPRPRPRPQAWPRP,0.416
3,RRIRSRPPRLPRPRPRPADNPRP,0.00328
4,RRIRLRPPRLPRPRPRPEWAPRP,-0.0233
5,RRIRLRPPRLPRPRPRPHCNPRP,-0.363
6,RRIRPRPPRLPRPRPRPKRHPRP,0.267
7,RRIRTRPPRLPRPRPRPDNQPRP,-0.337
8,RRIRVRPPRLPRPRPRPRHMPRP,0.152
9,RRIRKRPPRLPRPRPRPYAVPRP,0.916
10,RRIRRRPPRLPRPRPRPPRHPRP,1.08
11,RRIRDRPPRLPRPRPRPKMRPRP,-0.013
12,RRIRDRPPRLPRPRPRPTRWPRP,1.38
13,RRIRDRPPRLPRPRPRPHEDPRP,0.0325
14,RRIRTRPPRLPRPRPRPYDNPRP,-0.141
15,RRIRIRPPRLPRPRPRPFSDPRP,-0.227
16,RRIRYRPPRLPRPRPRPRKGPRP,-0.013
17,RRIRLRPPRLPRPRPRPVGDPRP,0.416
18,RRIRHRPPRLPRPRPRPRARPRP,0.814
19,RRIRIRPPRLPRPRPRPYRLPRP,0.00643
20,RRIRARPPRLPRPRPRPMVLPRP,-0.118
21,RRIRQRPPRLPRPRPRPGGMPRP,0.2
22,RRIRIRPPRLPRPRPRPGFTPRP,-0.329
23,RRIRLRPPRLPRPRPRPWTCPRP,-0.54
24,RRIRDRPPRLPRPRPRPFTEPRP,-0.165
25,RRIRRRPPRLPRPRPRPQDAPRP,0.427

row,Sequence,shrunken log2 fold change
1,RRIRGRPPRLPRPRPRPRSTPRP,0.978
2,RRIRCRPPRLPRPRPRPMRYPRP,0.0209
3,RRIRCRPPRLPRPRPRPSEMPRP,-0.286
4,RRIRPRPPRLPRPRPRPEYCPRP,-0.146
5,RRIRHRPPRLPRPRPRPDPRPRP,0.0959
6,RRIRKRPPRLPRPRPRPRFIPRP,0.346
7,RRIRIRPPRLPRPRPRPYNVPRP,-0.291
8,RRIRSRPPRLPRPRPRPTQAPRP,0.0131
9,RRIRKRPPRLPRPRPRPQKGPRP,-0.0581
10,RRIRLRPPRLPRPRPRPQKRPRP,0.0648
11,RRIRKRPPRLPRPRPRPMTTPRP,0.31
12,RRIRMRPPRLPRPRPRPDCRPRP,0.134
13,RRIRGRPPRLPRPRPRPRCVPRP,0.689
14,RRIRGRPPRLPRPRPRPMAYPRP,0.0863
15,RRIRTRPPRLPRPRPRPMMCPRP,-0.59
16,RRIRHRPPRLPRPRPRPHSRPRP,0.0183
17,RRIRQRPPRLPRPRPRPGRGPRP,0.333
18,RRIRERPPRLPRPRPRPELTPRP,0.534
19,RRIRKRPPRLPRPRPRPPPGPRP,0.961
20,RRIRWRPPRLPRPRPRPPLKPRP,0.415
21,RRIRTRPPRLPRPRPRPCEDPRP,-0.0385
22,RRIRWRPPRLPRPRPRPMTLPRP,-0.0611
23,RRIRPRPPRLPRPRPRPWWVPRP,0.0961
24,RRIRRRPPRLPRPRPRPIMPPRP,-0.188
25,RRIRSRPPRLPRPRPRPNFYPRP,-0.252

# — the supplement of paper PMC9112550, “Optimization of the antimicrobial peptide Bac7 by deep mutational scanning” (BMC Biology, 2022)
